Reference: paper PMC6771595

Key:
[1] = target: PptA, phosin (polyP-targeting protein) from Streptomyces chartreusis (Streptomyces chartreusis); experiment: SAXS
[2] = target: PptA, phosin (polyP-targeting protein) from Streptomyces chartreusis (Streptomyces chartreusis); experiment: SEC

Work on “PptA, phosin (polyP-targeting protein) from Streptomyces chartreusis (natural protein)” yielded a stoichiometry N [1] of 2 and a stoichiometry N [2] of 2.
